In paper PMC8669763:

Molecular target: HLA-B*51:01 (human | human (endogenous in 721.221))

KIR3DL1, sequence (P43629 22-444): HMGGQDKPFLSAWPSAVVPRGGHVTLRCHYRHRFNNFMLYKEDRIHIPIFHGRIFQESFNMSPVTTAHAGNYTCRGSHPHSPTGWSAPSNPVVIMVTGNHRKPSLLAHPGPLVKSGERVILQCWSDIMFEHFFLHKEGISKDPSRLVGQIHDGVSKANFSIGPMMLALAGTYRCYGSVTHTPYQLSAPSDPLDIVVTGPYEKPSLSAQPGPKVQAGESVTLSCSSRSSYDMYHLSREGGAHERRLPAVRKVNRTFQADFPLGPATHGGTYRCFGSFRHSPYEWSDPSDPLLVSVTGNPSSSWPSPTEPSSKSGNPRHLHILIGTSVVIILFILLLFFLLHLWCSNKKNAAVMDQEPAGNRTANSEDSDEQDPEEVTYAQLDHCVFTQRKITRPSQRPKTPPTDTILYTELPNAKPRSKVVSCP

degranulation: mean frequency of CD107a+ cells in the KIR3DL1 single positive NK subset after co-culture (1:1, 3 hours) with 221-B*51:01-shERAP1 (% CD107a+ cells): 25.8
Substance: KIR3DL1 (from UniProt P43629 22-444) (receptor)
